Experimental data from patent publication US12297265B2, “Antibody and use thereof” (SICHUAN KELUN-BIOTECH BIOPHARMACEUTICAL CO., LTD., priority 2018, dated 2025).

Molecular target: human Claudin18.2 (Homo sapiens, UniProt P56856)
Assay: FACS affinity of chimeric antibodies to Ba/F3-Claudin18.2 cells
Format: binding
Set-up: expressed in transfected cells; host or cells: Ba/F3 (BaF/3, DSMZ ACC300), hygromycin-selected monoclonal line
From the text: The amino acid sequence of the light chain variable region of 1E9.2, 2C6.9, 6B9.22, 9C8.1, 16A9.11, 19G10.14 or 19H11.6 was linked to the amino acid sequence of the light chain constant region κ (SEQ ID NO: 43) respectively; the amino acid sequence of the heavy chain variable region was linked to the amino acid sequence of IgG1 heavy chain constant region (SEQ ID NO: 42) respectively, to construct the chimeric antibody. Codon optimized cDNA was synthesized and cloned to pcDNA3.4 (synthesized by Nanjing Genscript Biotech Corporation). The pcDNA3.4 plasmids coding the light chain and heavy chain of each antibody were co-transfected to Expi293F cells (purchased from Thermo Fisher). The antibodies were purified from culture supernatant by protein A (MabSelect SuRe, GE). And the purified chimeric antibodies were named 1E9.2-hz00, 2C6.9-hz00, 6B9.22-hz00, 9C8.1-hz00, 16A9.11-hz00, 19G10.14-hz00 and 19H11.6-hz00.
The affinity of the anti-Claudin18.2 chimeric antibodies to Ba/F3-Claudin18.2 cells were determined. […] The cells were then analyzed by FACS.

## IMAB362: Zolbetuximab (IMAB362) developed by Astellas, human-mouse chimeric IgG1 antibody targeting Claudin 18.2; control antibody, sequences from CN 101312989 B [reference compound]
  Max MFI: 8.97 ×10^6
